Here are results for two substances from PMC4136804.

Experiment [1] addresses GST-tagged SUMO-2 (UniProt P61956). As to the kind of experiment: pull-down; as the plate assay, equal cpm of radiolabeled protein per well, eluted protein counted by liquid scintillation; mean of three experiments, compared with GST alone.
Experiment [2] has as its target GST-tagged SUMO-2(x3). Described as above.

Sequence of GST-tagged SUMO-2(x3) (main, as listed by the source): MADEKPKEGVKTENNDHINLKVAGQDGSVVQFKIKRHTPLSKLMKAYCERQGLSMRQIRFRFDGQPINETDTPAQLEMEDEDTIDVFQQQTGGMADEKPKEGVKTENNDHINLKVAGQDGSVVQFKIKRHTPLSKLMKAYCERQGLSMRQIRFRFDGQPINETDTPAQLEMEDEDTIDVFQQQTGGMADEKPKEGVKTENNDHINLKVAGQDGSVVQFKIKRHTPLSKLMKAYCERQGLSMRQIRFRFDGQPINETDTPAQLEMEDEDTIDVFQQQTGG
Sequence of pyruvate kinase fused with the first two MYM-type zinc fingers of ZNF261 (domain or fragment) (Q14202 327-738): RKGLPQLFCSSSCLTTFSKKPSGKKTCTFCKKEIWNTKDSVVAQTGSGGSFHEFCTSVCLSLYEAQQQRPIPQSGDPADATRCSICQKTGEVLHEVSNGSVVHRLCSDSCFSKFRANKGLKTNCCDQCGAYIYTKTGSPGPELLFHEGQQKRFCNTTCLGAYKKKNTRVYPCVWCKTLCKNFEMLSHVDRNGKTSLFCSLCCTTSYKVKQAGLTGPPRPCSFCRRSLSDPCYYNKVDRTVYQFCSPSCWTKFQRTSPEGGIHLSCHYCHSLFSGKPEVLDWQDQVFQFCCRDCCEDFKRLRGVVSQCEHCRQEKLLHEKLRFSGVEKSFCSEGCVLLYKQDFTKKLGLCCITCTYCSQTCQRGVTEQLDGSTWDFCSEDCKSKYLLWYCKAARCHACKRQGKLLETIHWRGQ
Sequence of pyruvate kinase fused with a single MYM-type zinc finger of ZNF261 (domain or fragment) (Q14202 327-738): as above

“pyruvate kinase fused with a single MYM-type zinc finger of ZNF261 (domain or fragment)”: the figures for the fold increase in binding compared to GST alone in experiment [1] and in experiment [2] were 1.5 fold and 3 fold, respectively.

As for “pyruvate kinase fused with the first two MYM-type zinc fingers of ZNF261 (domain or fragment)”, the fold increase in binding over the single-finger fusion in experiment [1] and in experiment [2] was > 2 fold each time.
